Experimental data taken from PMC4931565, “Higher‐order assemblies of oligomeric cargo receptor complexes form the membrane scaffold of the Cvt vesicle” (EMBO Reports, 2016).
Changes are numbered by the printed parent chain. Names may count otherwise. “And” between values parts separate entries of the source, which are not always exact repeats. Equal entries are not always repeated.

B1: Saccharomyces cerevisiae Atg19 (MBP tag cleaved) (natural protein, S. cerevisiae, UniProt P35193 1-415, looked up)
chain: MNNSKTNQQMNTSMGYPLTVYDECNKFQLIVPTLDANIMLWCIGQLSLLNDSNGCKHLFWQPNDKSNVRILLNNYDYGHLFKYLQCQRKCSVYIGEGTLKKYNLTISTSFDNFLDLTPSEEKESLCREDAHEDPVSPKAGSEEEISPNSTSNVVVSRECLDNFMKQLLKLEESLNKLELEQKVTNKEPNHRISGTIDIPEDRSELVNFFTELKTVKQLEDVFQRYHDYERLSQECDSKTEIASDHSKKETKIEVEPPNERSLQITMNQRDNSLYFQLFNNTNSVLAGNCKLKFTDAGDKPTTQIIDMGPHEIGIKEYKEYRYFPYALDLEAGSTIEIENQYGEVIFLGKYGSSPMINLRPPSRLSAESLQASQEPFYSFQIDTLPELDDSSIISTSISLSYDGDDNEKALTWEEL
notes: autophagy receptor Atg19 of S. cerevisiae, from cDNA; also called trimeric Atg19; source: Sf21, purified (amylose beads, TEV cleavage, DEAE ion exchange); or co-purified with prApe1 (amylose beads, TEV cleavage, Superose 6); not shown: MBP, N-terminal, cleaved
B2: Saccharomyces cerevisiae Ams1 (alpha-mannosidase 1), wild type (natural protein, S. cerevisiae, UniProt P22855 1-1083, looked up)
chain: MSSEDIIYDPQFKPVQGIYENRLRQFIDTGGDYHDLNLPKFYDKKRISLDHDHVKVWWYQVSFERGSSPVSPDKRPSWKSIIERDKKGELEFREANINQPFGPSWSTTWFKVKISLPEDWVKSNEQLLFQWDCSNEGIVIDPKTLIPVTAFSGGERTEYVLPKTSDGKHFFYIEAGNNGMFGCGAGSTINPPDDNRFFHLRKADIVWPDLDARALYIDFWMLGDAARELPGDSWQKHQARQLGNAVMNLFDPNDRSSVRKCRELLQREYFDSFLESSKVYEQGESQVLTNVYGIGNCHIDTAWLWPFAETRRKIVRSWSSQCTLMDRFPEYKFVASQAQQFKWLLEDHPEFFNKVLIPKIQQSQFFAVGGTWVENDTNIPSGESLARQFFFGQRFFLKHFGLKSKIFWLPDTFGYSSQMPQLCRLSGIDKFLTQKLSWNNINSFPHSTFNWAGIDGSQLLTHMPPGNTYTADSHFGDVLRTAKQNKTPEYYGSGLMLYGKGDGGGGPTEEMLQKMRRIRSMNNRNGNVIPKLQVGITVDEFYDDILKRTNQGHDLPTWSGELYFEFHRGTYTSQAQTKKLMRLSEIKLHDLEWIAAKTSVLYPDSYKYPSKQINELWENVLLCQFHDVLPGSCIEMVYKYEAVPMLHNVVKECTSLIDKTVQFLQSQSKADLVEMRTLTWSKPEKVSEECSLNGSYTSSVTGYDDYIVLANGKLKVIICKKTGVITSITDETLGVEYLDTEHGRNKLGANQFVIYDDKPLGWQAWDTELYSVNQYKYVTKPKKVQVSCNTKEKCAVEVIFQISEKCKIKSVISLNATAVTDAKLSKVDISTTVENWDARNKFLKVEFPVNIRNDFASYETQFGITKRPTHYNTSWDVAKFEVCHHKFADYSEYSKGVSILNDCKYGFSTHGNLMRLSLLRSPKAPDAHADMGTHEIKYAIYPHRGALSSDTVKLAHEFNYCFKYKLPKDIGMNFDDIISISGDENVILSNIKRGEDDSAVKSNYSLNPRDEQSIVVRVYESLGGESFASLNTTLNLKRIEKVDNLEMKVYKSLTATRDESNHAINRIPIKLRPFEIASFRLYF
notes: alpha-mannosidase 1 (Ams1) of S. cerevisiae, 125-kDa full-length protein (model covers residues up to 1083); Expression from pGAPZ-His6-Ams1; also called His6-Ams1; his-Ams1; source: Pichia pastoris SMD1168, purified
B3: Saccharomyces cerevisiae Ams1 W234E mutant (natural protein, S. cerevisiae, UniProt P22855 1-1083, looked up)
chain: B2 chain with W234E
notes: alpha-mannosidase 1 (Ams1) of S. cerevisiae with W234E in the N-terminal four-helix bundle; Same construct as m4 (pGAPZ-His6-Ams1) with the point mutation; also called W234E dimers; source: Pichia pastoris SMD1168, purified
B4: MBP-Atg19 (Saccharomyces cerevisiae Atg19 with N-terminal MBP) (natural protein, S. cerevisiae, UniProt P35193 1-415, looked up)
chain: B1 chain
notes: autophagy receptor Atg19 of S. cerevisiae, from cDNA; source: Sf21, purified (amylose beads, eluted with maltose); also in Sf21 lysate, co-expressed with prApe1; not shown: MBP, N-terminal, kept
B5: Saccharomyces cerevisiae mApe1 (mature Ape1 lacking the N-terminal propeptide), P14904 46-514 (natural protein)
chain: EHNYEDIAQEFIDFIYKNPTTYHVVSFFAELLDKHNFKYLSEKSNWQDSIGEDGGKFYTIRNGTNLSAFILGKNWRAEKGVGVIGSHVDALTVKLKPVSFKDTAEGYGRIAVAPYGGTLNELWLDRDLGIGGRLLYKKKGTNEIKSALVDSTPLPVCRIPSLAPHFGKPAEGPFDKEDQTIPVIGFPTPDEEGNEPPTDDEKKSPLFGKHCIHLLRYVAKLAGVEVSELIQMDLDLFDVQKGTIGGIGKHFLFAPRLDDRLCSFAAMIALICYAKDVNTEESDLFSTVTLYDNEEIGSLTRQGAKGGLLESVVERSSSAFTKKPVDLHTVWANSIILSADVNHLYNPNFPEVYLKNHFPVPNVGITLSLDPNGHMATDVVGTALVEELARRNGDKVQYFQIKNNSRSGGTIGPSLASQTGARTIDLGIAQLSMHSIRAATGSKDVGLGVKFFNGFFKHWRSVYDEFGEL
B6: Saccharomyces cerevisiae prApe1 (vacuolar aminopeptidase I with its N-terminal propeptide) (natural protein, S. cerevisiae, UniProt P14904 1-514, looked up)
chain: MEEQREILEQLKKTLQMLTVEPSKNNQIANEEKEKKENENSWCILEHNYEDIAQEFIDFIYKNPTTYHVVSFFAELLDKHNFKYLSEKSNWQDSIGEDGGKFYTIRNGTNLSAFILGKNWRAEKGVGVIGSHVDALTVKLKPVSFKDTAEGYGRIAVAPYGGTLNELWLDRDLGIGGRLLYKKKGTNEIKSALVDSTPLPVCRIPSLAPHFGKPAEGPFDKEDQTIPVIGFPTPDEEGNEPPTDDEKKSPLFGKHCIHLLRYVAKLAGVEVSELIQMDLDLFDVQKGTIGGIGKHFLFAPRLDDRLCSFAAMIALICYAKDVNTEESDLFSTVTLYDNEEIGSLTRQGAKGGLLESVVERSSSAFTKKPVDLHTVWANSIILSADVNHLYNPNFPEVYLKNHFPVPNVGITLSLDPNGHMATDVVGTALVEELARRNGDKVQYFQIKNNSRSGGTIGPSLASQTGARTIDLGIAQLSMHSIRAATGSKDVGLGVKFFNGFFKHWRSVYDEFGEL
notes: vacuolar aminopeptidase I (Ape1) of S. cerevisiae, 55-kDa zymogen including the N-terminal propeptide; only TEV cleavage of MBP is described there; also called sc-prApe1; full-length prApe1; source: Sf21, purified (glutathione beads, 3C cleavage, Superose 6); also co-expressed with MBP-Atg19 in Sf21 and co-purified on amylose beads; not shown: GST, N-terminal, cleaved; copies: 12

What was measured:
[1] = target: Chaetomium thermophilum mApe1 (Chaetomium thermophilum); assay: crystal structure; ct-mApe1, hanging drop, 4 C, 100 mM Hepes pH 6.6, 4 M sodium formate; 2.8 A
[2] = target: Chaetomium thermophilum mApe1 (Chaetomium thermophilum); assay: negative stain EM; purified protein or purified complex, 2% uranyl acetate, droplet technique; particles and class averages
[3] = target: the molecule itself; assay: SEC-MALS; Atg19 about 2 mg/ml, 50 mM Tris pH 7.5, 150 mM NaCl, 0.5 mM TCEP, Superose 6 increase, room temperature, triplicate
[4] = target: the molecule itself; assay: cryo-EM structure; His6-Ams1 0.4 mg/ml in 50 mM Tris-HCl, 175 mM NaCl, 75 mM imidazole; D2 symmetry, 6.3 A
[5] = target: the molecule itself; assay: negative stain EM; purified protein or purified complex, 2% uranyl acetate, droplet technique; particles and class averages
[6] = target: B2; assay: pull-down; purified MBP-Atg19 or MBP (1 uM) mixed with his-Ams1 (1 uM), mApe1 (1 uM) or prApe1 (0.7 uM) overnight at 4 C in 50 mM Tris-HCl pH 7.5, 25 mM NaCl, 5 mM MgCl2, 1 mM DTT, 0.2% NP-40; captured on amylose beads; SDS-PAGE, Coomassie; details: both partners purified
[7] = target: T1, Saccharomyces cerevisiae mApe1 (mature Ape1 lacking the N-terminal propeptide) (S. cerevisiae), P14904; assay: negative stain EM; purified protein or purified complex, 2% uranyl acetate, droplet technique; particles and class averages; details: remark: other sources report otherwise
T1 chain: B5 chain

[8] = target: T1, Saccharomyces cerevisiae mApe1 (mature …); assay: negative stain EM; GraFix-purified sc-mApe1 (10-30% glycerol with 0-0.15% glutaraldehyde gradient, 50 mM Hepes pH 7.5, 150 mM NaCl); 3D reconstruction with tetrahedral symmetry, 24 A; details: remark: other sources report otherwise

With “Chaetomium thermophilum mApe1 (natural protein)” the stoichiometry N [1] was 12 and the stoichiometry N [2] was 12.

In the case of B1, the “stoichiometry N” value [3] is reported as 3.

With B2 the “stoichiometry N” value [4] was 4.

In the case of B3, the “stoichiometry N” value [5] is reported as 2.

B4: binds [6].

B5 was tested, and the stoichiometry N [7] was 12 and 6 and the stoichiometry N [8] was 12.

For B6, the “stoichiometry N” value [5] was 12.
